Measured values as given in patent publication US20160235871A1, “Spect Radionuclide-labeled Trimeric Cycle RGD Peptide, Preparation Method Thereof and Imaging Method Thereof” (Bailing Cloud Biomedical Technologies Innovation, priority 2015, published 2016).
Like-named read-outs stand apart in the source and are kept apart here.

Tests used:
[1] = Biodistribution in U87MG glioma nude mice; assay type: in vivo; details: female, athymic nu/nu nude, mouse, in vivo, iv, 3 uCi, total radioactivity
Method: (§1) U87MG cells are purchased from US ATCC (Manassas, Va.). Cell culture conditions: […] […] 7 random U87MG glioma nude mice (20-25 g) are selected. […] After 60 minutes, a great amount of sodium pentobarbital is injected for executing the mice. Blood samples are collected from the mouse hearts. Tumor, normal organs (brain, eyes, heart, spleen, lung, liver, kidney, muscle and intestine) and tumor tissues are collected and washed by saline. Then they are dried by absorbent tissue, weighed by Perkin Elmer Wizard 1480 γ counter (Shelton, Conn.). The organ intake is measured by the percentage of the injection dose per gram of the tissue (% ID/g).

U87MG glioma [2] = experiment: Biodistribution in U87MG glioma nude mice; assay type: in vivo
Method: as §1

[3] = normal mice, research period over 2 hours
Method: X. Normal mice (n=2) are selected for the metabolism research of the stability of ^99mmTc-4P-RGD3 in vivo, Each animal is injected with about 10 MBq of ^99mTc-4P-RGD3. The bladders are squeezed manually after 30 minutes and 120 minutes, respectively. The urine samples are collected and are mixed with 50% aqueous acetonitrile with the same volume. The mixture is centrifilged under 8,000 rpm. The supernatant is collected and is filtered by a 0.20 μm Millex-LG filter. The filtrate is analyzed by the HPLC. The fecal samples 120 minutes after the injection is collected, and is treated for homogenization by 20% of aqueous acetonitrile. The obtained mixture is rotated for about 5 minutes and then is centrifuged under 8,000 rpm. The supernatant is collected and is filtered by a 0.20 μm. Millex-LG filter. The filtrate is analyzed by the HPLC.

U87MG glioma [4] = details: SPECT/CT
Method: The preparation of ^99mTc-4P-RGD3 for the research of biodistribution includes incorporating ^99mTc-4P-RGD3 solution into physiological saline until the activity concentration is 10-30 mCi/mL. The preparation of ^99mTc-4P-RGD3 for tumor imaging includes incorporating ^99mTc-4P-RGD3 solution into physiological saline until the activity concentration is about 10 mCi/mL. During the experiments, each of the animal is injected with about 0.1 mL of the solution.
Biodistribution and tumor imaging are performed under the guidance of US National Institutes of Health animal experiments (1985, NIH 86-23, Laboratory Animal Care). U87MG cells are purchased from US ATCC (Manassas, Va.). Cell culture conditions: DMEM medium (non-essential amino acids sodium pyruvate) containing 10% of fetal bovine serum and 1% of penicillin and streptomycin. The cells are cultured under 37° C. with 5% of CO2. When the cells are grown to 90% confluence, they grow exponentially. The cells can be grown to a single layer, multiple layers or split layers. Female athymic nu/nu nude mice aged 4-5 weeks are used for the experiments, 5×10^6 of tumor cells are incorporated into 0.1 mL of physiological saline and are planted to shoulder subcutaneous of the mice under sterile conditions. About 4 weeks after planting, the tumor cells grow to 0.1-0.5 g for the use of biodistribution and imaging.

SMILES | tissue uptake at 1 h ([1]; Organ intake, Blood) [%ID/g] | tissue uptake at 1 h ([1]; Organ intake, Brain) [%ID/g] | tissue uptake at 1 h ([1]; Organ intake, Eye) [%ID/g] | tissue uptake at 1 h ([1]; Organ intake, Heart) [%ID/g] | tissue uptake at 1 h ([1]; Organ intake, Kidney) [%ID/g] | tissue uptake at 1 h ([1]; Organ intake, Liver) [%ID/g] | tissue uptake at 1 h ([1]; Organ intake, Lung) [%ID/g] | tissue uptake at 1 h ([1]; Organ intake, Muscle) [%ID/g] | tissue uptake at 1 h ([1]; Organ intake, Spleen) [%ID/g] | tissue uptake at 1 h ([1]; Tumor intake) [%ID/g] | Tumor intake (U87MG glioma [2]; mouse, in vivo) [% ID/g] | further results
N=C(N)NCCC[C@@H]1NC(=O)[C@H](CCCCNC(=O)CCOCCOCCOCCOCCNC(=O)CCC(CCC(=O)NCCOCCOCCOCCOCCC(=O)NCCCC[C@@H]2NC(=O)[C@@H](Cc3ccccc3)NC(=O)[C@H](CC(=O)O)NC(=O)CNC(=O)[C@H](CCCNC(=N)N)NC2=O)(CCC(=O)NCCOCCOCCOCCOCCC(=O)NCCCC[C@@H]2NC(=O)[C@@H](Cc3ccccc3)NC(=O)[C@H](CC(=O)O)NC(=O)CNC(=O)[C@H](CCCNC(=N)N)NC2=O)NC(=O)CCOCCOCCOCCOCCNC(=O)c2ccc(NN)nc2)NC(=O)[C@@H](Cc2ccccc2)NC(=O)[C@H](CC(=O)O)NC(=O)CNC1=O (stereo partly drawn) [^99mTc-4P-RGD3, metal not drawn] | – | – | – | – | – | – | – | – | – | – | – | tissue uptake at 1 h ([1]; U87MG glioma nude mice, 60 minutes after tail vein injection, read-out: Organ intake, Blood): 0.53 ± 0.14 %ID/g; tissue uptake at 1 h ([1]; U87MG glioma nude mice, 60 minutes after tail vein injection, read-out: Organ intake, Brain): 0.14 ± 0.01 %ID/g; tissue uptake at 1 h ([1]; U87MG glioma nude mice, 60 minutes after tail vein injection, read-out: Organ intake, Eye): 0.46 ± 0.23 %ID/g; tissue uptake at 1 h ([1]; U87MG glioma nude mice, 60 minutes after tail vein injection, read-out: Organ intake, Heart): 0.56 ± 0.19 %ID/g; tissue uptake at 1 h ([1]; U87MG glioma nude mice, 60 minutes after tail vein injection, read-out: Organ intake, Kidney): 9.1 ± 2.31 %ID/g; tissue uptake at 1 h ([1]; U87MG glioma nude mice, 60 minutes after tail vein injection, read-out: Organ intake, Liver): 1.92 ± 0.62 %ID/g; tissue uptake at 1 h ([1]; U87MG glioma nude mice, 60 minutes after tail vein injection, read-out: Organ intake, Lung): 1.14 ± 0.41 %ID/g; tissue uptake at 1 h ([1]; U87MG glioma nude mice, 60 minutes after tail vein injection, read-out: Organ intake, Muscle): 0.35 ± 0.17 %ID/g; tissue uptake at 1 h ([1]; U87MG glioma nude mice, 60 minutes after tail vein injection, read-out: Organ intake, Small Intestine): 1.65 ± 0.37 %ID/g; tissue uptake at 1 h ([1]; U87MG glioma nude mice, 60 minutes after tail vein injection, read-out: Organ intake, Spleen): 1.33 ± 0.52 %ID/g; tissue uptake at 1 h ([1]; U87MG glioma nude mice, 60 minutes after tail vein injection, read-out: Tumor intake): 7.34 ± 1.66 %ID/g; Intake background in organs of the whole body (intestine, liver, lung, muscle, spleen, kidney) (U87MG glioma [2]; 60 minutes after injection, compared with ^99mTc-3P-RGD2 and ^99mTc-Galacto-RGD2): significantly decreased; Tumor intake (U87MG glioma [2]; U87MG glioma nude mice, 60 minutes after tail vein injection): 7.34±1.66 % ID/g; Metabolites detected in the urine samples and the fecal samples (radio-HPLC) [3]: no metabolites; Radioactive accumulation in animal abdomen (especially in intestines) (U87MG glioma [4]; compared with ^99mTc-3P-RGD2 and ^99mTc-Galacto-RGD2): the lowest; Tumor intake based on the SPECT quantization (U87MG glioma [4]; glioma nude mice, about 37 MBq injected): about 7.34 ID/g
N=C(N)NCCC[C@@H]1NC(=O)[C@H](CCCCNC(=O)[C@H]2O[C@@H](CNC(=O)COCCOCCn3cc(CNC(=O)CC[C@H](NC(=O)c4ccc(NN)nc4)C(=O)NCc4cn(CCOCCOCC(=O)NC[C@@H]5O[C@H](C(=O)NCCCC[C@@H]6NC(=O)[C@@H](Cc7ccccc7)NC(=O)[C@H](CC(=O)O)NC(=O)CNC(=O)[C@H](CCCNC(=N)N)NC6=O)[C@H](O)[C@H](O)[C@H]5O)nn4)nn3)[C@H](O)[C@@H](O)[C@H]2O)NC(=O)[C@@H](Cc2ccccc2)NC(=O)[C@H](CC(=O)O)NC(=O)CNC1=O [^99mTc-Galacto-RGD2, metal not drawn] | 0.56 ± 0.25 | 0.35 ± 0.28 | 0.81 ± 0.39 | 1.27 ± 0.61 | 11.7 ± 4.06 | 3.07 ± 2.14 | 2.93 ± 0.94 | 0.88 ± 0.34 | 1.99 ± 0.71 | 6.86 ± 1.33 | 6.86±1.33 | tissue uptake at 1 h ([1]; Organ intake, Small Intestine): 5.45 ± 1.47 %ID/g
N=C(N)NCCC[C@@H]1NC(=O)[C@H](CCCCNC(=O)CCOCCOCCOCCOCCNC(=O)CC[C@H](NC(=O)CCOCCOCCOCCOCCNC(=O)c2ccc(NN)nc2)C(=O)NCCOCCOCCOCCOCCC(=O)NCCCC[C@@H]2NC(=O)[C@@H](Cc3ccccc3)NC(=O)[C@H](CC(=O)O)NC(=O)CNC(=O)[C@H](CCCNC(=N)N)NC2=O)NC(=O)[C@@H](Cc2ccccc2)NC(=O)[C@H](CC(=O)O)NC(=O)CNC1=O [^99mTc-3P-RGD2, metal not drawn] | 0.47 ± 0.06 | 0.17 ± 0.03 | 1.4 ± 0.13 | 1.67 ± 0.15 | 12.3 ± 1.09 | 2.92 ± 0.77 | 4.25 ± 0.63 | 1.12 ± 0.15 | 3.11 ± 0.18 | 7.24 ± 0.95 | 7.24±0.95 | –
